The labels stand for the following.
B1: 19D2 scFv (scFv)
scFv: EVQLQQSGGELARPGSSVKLSCKASGYSFTGYSLTWVKQTPGQGLEWIGEIYPRSGNTYYNENFQGKATLTADESSSTAYMELRSLTSEDSAVYFCARDFYDYDGGGRGYWGQGTTLTVSSVDLKSGGSTSGSGKPGSGEGSSGSARDIVMTQTPAIMSASPGEKVTITCSASSSVSYMHWYQQKPGTSPKLWIYSTSNLASGVPARFSGSGSGTSYSLTISRMEAEDAATYYCQQRSSYPYTFGGGTKLEIK
notes: mouse
B2: 19A9 scFv (scFv)
scFv: EVQLQQPGSELARPGASVKLSCKASGYTFTSYPITWVKQTTGQGLEWIGEIYPRSGNTYYNEKFKGKATLTADKSSSTAYMELRSLTSEDSAVYFCARDYYDYAGGGRGYWGQGTTLTVSSVDLKSGGSTSGSGKPGSGEGSSGSARDIVLTQSPAIMSASPGGKITITCSASSSVSYMHWFQQKPGTSPKLWIYSTSNLASGVPARFSGSGSGTSYSLTISRMEAEDAATYYCQQRSSYPYTFGGGTKLEIK
notes: mouse
B3: 39H6 scFv (scFv, V domains shown)
VH: EVQLVPSGGNLVQPGGSLRLSCAATGPIGSHWMTWVRQAPGQGLEWVANINLDGTEKFYVDSVKGRFTVSRDNRKSSVFLQMNNLRVDDTAVYYCARLQWGGYNGWLSPWGQGTLVTVSS
VL: DIVMTQSPPSLSASVGDRVSLTCRASEYIGTSLNWYQQKPGKAPKLLIYAASALHSGVPSRFSGSGSGTDFTLTISGLQPEDFATYYCQQANDLPLTFGGGTKLEIK
B4: 41C2 scFv (scFv, V domains shown)
VH: B3 VH with L4Q, P6Q
VL: B3 VL with A91T
B5: 43D3 scFv (scFv, V domains shown)
VH: B3 VH with L4Q, P6Q
VL: B3 VL with I106N
B6: 39A1 scFv (scFv, V domains shown)
VH: B3 VH with L4Q, P6Q
VL: B3 VL
B7: 41E2 scFv (scFv, V domains shown)
VH: B3 VH
VL: B3 VL with T5I
B8: 41F7 scFv (scFv, V domains shown)
VH: B3 VH
VL: B3 VL with V3L
B9: 39D5.1 scFv (scFv, V domains shown)
VH: B3 VH with P6Q, N49S
VL: B3 VL

Numbering of substitutions follows the chain as printed.

A word on the Kd: it is the constant that tells how readily two partners part at equilibrium.

The first assay has as its target T1, BoNT/B1 (Clostridium botulinum, UniProt P10844 2-1291).
T1 sequence: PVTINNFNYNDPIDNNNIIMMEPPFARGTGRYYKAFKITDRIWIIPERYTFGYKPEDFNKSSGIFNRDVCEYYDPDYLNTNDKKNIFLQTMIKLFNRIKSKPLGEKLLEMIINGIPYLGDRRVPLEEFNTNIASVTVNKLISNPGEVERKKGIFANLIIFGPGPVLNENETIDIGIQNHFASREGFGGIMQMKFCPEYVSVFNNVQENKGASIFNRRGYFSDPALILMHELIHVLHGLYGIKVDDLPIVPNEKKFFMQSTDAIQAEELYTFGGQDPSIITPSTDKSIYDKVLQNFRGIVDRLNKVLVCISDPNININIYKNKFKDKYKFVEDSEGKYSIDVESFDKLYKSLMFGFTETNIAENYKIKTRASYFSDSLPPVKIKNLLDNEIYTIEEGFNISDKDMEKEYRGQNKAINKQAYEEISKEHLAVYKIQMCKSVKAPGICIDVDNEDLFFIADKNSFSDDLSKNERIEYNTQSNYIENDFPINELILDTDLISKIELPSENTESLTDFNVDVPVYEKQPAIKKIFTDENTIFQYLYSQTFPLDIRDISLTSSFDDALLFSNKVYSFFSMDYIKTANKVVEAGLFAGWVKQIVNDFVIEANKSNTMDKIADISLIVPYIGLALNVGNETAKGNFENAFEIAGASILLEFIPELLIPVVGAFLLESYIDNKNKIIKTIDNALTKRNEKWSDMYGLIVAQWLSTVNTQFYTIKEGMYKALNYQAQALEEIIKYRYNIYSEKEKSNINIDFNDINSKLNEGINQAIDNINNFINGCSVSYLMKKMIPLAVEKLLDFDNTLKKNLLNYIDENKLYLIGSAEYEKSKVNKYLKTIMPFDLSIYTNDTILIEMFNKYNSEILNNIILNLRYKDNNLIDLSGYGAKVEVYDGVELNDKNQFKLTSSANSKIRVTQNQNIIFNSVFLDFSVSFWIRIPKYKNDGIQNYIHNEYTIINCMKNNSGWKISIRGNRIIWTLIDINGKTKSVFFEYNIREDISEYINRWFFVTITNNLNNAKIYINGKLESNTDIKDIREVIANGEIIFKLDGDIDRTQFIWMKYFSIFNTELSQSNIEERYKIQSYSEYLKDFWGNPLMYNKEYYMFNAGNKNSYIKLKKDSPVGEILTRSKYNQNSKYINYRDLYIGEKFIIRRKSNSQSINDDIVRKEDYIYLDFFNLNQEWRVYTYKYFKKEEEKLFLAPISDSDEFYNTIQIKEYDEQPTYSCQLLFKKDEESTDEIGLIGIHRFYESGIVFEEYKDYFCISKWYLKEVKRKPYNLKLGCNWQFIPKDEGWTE
Briefly: yeast scFv FACS.
For the molecule B1, the Kd came out at 2.95 nM.

In turn, B2 showed a Kd of 1.98 nM.

In a further assay the target is T2, BoNT/B light chain (recombinant) (Clostridium botulinum, UniProt P10844 1-441).
T2 sequence: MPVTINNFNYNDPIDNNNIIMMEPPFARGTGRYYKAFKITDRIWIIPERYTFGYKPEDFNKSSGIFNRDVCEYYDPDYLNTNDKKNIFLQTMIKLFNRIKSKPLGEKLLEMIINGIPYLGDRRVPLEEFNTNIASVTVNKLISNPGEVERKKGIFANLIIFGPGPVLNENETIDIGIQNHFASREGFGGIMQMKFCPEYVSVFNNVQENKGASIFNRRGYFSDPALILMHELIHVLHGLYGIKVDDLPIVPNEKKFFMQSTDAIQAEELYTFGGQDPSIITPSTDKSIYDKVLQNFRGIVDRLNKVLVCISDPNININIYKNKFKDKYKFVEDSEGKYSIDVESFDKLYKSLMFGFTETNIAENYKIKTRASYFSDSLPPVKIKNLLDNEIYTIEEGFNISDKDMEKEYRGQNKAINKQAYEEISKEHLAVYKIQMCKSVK
Description: yeast scFv FACS.
Regarding B1, the Kd was 5.69 nM.

Consider B2, for which the Kd was found to be 3.16 nM.

A further assay deals with T3, BoNT/F 202F (Clostridium botulinum, UniProt P30996 1-1274).
T3 sequence: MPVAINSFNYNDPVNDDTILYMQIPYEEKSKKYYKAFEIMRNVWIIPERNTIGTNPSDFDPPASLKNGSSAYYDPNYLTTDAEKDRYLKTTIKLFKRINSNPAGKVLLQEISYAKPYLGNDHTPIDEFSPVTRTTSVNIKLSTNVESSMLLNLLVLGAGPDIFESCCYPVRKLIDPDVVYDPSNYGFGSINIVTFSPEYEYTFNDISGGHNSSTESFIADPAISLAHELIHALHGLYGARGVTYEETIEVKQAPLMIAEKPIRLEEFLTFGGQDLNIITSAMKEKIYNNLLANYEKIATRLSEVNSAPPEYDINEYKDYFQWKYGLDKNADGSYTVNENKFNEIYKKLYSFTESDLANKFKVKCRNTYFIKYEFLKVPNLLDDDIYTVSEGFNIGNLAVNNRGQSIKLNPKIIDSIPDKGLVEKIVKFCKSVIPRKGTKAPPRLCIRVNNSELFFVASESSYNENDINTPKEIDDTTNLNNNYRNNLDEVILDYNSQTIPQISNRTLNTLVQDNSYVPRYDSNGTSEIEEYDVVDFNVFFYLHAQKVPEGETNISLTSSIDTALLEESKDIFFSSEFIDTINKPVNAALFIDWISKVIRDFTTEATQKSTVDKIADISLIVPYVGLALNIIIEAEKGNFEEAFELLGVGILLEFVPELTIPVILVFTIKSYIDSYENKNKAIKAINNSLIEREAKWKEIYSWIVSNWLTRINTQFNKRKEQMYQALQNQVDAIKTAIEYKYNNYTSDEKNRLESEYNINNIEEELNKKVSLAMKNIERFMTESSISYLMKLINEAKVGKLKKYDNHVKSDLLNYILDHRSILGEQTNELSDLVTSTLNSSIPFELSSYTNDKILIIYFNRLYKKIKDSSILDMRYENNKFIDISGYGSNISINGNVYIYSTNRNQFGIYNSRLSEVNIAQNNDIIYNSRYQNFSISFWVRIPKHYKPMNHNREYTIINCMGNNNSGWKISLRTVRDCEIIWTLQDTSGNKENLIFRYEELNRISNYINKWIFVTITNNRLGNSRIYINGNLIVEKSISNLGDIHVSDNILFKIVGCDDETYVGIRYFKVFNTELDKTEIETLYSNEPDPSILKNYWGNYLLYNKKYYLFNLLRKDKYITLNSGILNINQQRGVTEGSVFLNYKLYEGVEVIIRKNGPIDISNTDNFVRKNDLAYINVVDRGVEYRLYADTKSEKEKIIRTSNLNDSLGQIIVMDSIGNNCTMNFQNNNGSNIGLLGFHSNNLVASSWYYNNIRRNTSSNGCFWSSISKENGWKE
Briefly: yeast scFv FACS.
As for B3, the binding result was “binds”.

With B4, the binding result is listed as “binds”.

B5: the binding result is recorded as “binds”.

For the molecule B6, the binding result is recorded as “binds”.

On to B7, for which the binding result was “binds”.

With B8, the binding result is recorded as “binds”.

As for B9, the binding result is reported as “binds”.

The target of the next assay is T4, BoNT/F1 (proteolytic BoNT/F) (Clostridium botulinum, UniProt A7GBG3 1-1278).
T4 sequence: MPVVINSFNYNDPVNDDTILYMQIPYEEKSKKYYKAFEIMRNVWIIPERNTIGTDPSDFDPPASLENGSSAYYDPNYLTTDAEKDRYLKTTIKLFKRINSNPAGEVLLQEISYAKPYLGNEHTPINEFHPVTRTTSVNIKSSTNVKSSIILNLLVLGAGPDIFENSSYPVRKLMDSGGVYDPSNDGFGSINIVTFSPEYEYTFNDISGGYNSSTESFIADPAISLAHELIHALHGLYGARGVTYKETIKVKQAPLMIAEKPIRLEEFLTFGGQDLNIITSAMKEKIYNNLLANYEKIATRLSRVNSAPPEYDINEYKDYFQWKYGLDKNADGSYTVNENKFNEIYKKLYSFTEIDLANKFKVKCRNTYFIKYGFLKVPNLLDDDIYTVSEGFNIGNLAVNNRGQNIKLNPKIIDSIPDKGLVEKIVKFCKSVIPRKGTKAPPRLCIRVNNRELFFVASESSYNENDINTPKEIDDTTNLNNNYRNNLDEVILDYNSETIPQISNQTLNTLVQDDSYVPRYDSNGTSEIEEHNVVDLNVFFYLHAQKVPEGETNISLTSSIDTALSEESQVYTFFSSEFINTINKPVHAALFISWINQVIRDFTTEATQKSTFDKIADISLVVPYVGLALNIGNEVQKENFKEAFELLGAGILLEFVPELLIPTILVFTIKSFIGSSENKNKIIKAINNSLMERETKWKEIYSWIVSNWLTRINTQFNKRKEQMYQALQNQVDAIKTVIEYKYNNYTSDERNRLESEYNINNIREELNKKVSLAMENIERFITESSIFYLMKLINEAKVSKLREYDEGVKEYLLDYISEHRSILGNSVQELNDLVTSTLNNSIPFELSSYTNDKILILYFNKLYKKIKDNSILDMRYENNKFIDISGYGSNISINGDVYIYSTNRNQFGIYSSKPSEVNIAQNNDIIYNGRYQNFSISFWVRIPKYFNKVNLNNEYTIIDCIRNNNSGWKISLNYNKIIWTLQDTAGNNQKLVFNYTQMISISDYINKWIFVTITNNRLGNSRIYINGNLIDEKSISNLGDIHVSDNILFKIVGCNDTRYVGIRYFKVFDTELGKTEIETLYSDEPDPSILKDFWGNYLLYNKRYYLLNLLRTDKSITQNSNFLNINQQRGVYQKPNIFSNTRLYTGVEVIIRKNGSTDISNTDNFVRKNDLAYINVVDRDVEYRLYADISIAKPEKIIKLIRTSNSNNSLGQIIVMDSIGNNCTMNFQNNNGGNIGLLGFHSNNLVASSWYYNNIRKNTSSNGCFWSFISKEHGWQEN
Description: yeast scFv FACS.
In turn, B3 returned a Kd of 0.526 nM.

In turn, B4 had a Kd of 0.355 nM.

The molecule B5 had a Kd of 0.333 nM.

B6 gave a Kd of 0.588 nM.

Molecule B7 registered a Kd of 0.584 nM.

As for B8, binding was put at a Kd of 0.566 nM.

Molecule B9 registered a Kd of 1.77 nM.

The record behind these values is US20220089784A1 (University of California, published 2022).
